The source of these data is patent US20220306744A1.

Experiment [1] deals with cynomolgus PD-1 recombinant protein (Acro Biosystems cat no. PD-1-C5254) (cynomolgus). Put plainly: HTRF binding assay, 2 nM recombinant PD1, anti His-D2 and anti human-Fc cryptate.
Experiment [2] concerns the target recombinant human PD-1 Fc chimera (human) (UniProt Q15116). The description is as above.
Experiment [3] deals with human PD-1 expressed on cells (CHO TREX human PD1 cell line, full-length human PD-1 sequence) (human) (UniProt Q15116). Put plainly: FMAT: inhibition of human Fc tagged human PD-L1 (400 pM) binding to CHO human PD-1 cells.
human PD-1 expressed on cells (CHO TREX human PD1 cell line, full-length human PD-1 sequence) (human), sequence (Q15116 21-288): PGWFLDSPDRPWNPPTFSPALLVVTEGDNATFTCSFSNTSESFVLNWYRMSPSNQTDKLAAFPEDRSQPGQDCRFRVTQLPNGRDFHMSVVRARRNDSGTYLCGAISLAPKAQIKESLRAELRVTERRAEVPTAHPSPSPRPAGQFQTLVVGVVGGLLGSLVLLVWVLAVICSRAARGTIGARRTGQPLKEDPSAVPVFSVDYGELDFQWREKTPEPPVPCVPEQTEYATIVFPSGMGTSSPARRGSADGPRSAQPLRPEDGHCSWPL
For experiment [4] the target is unchanged. Put plainly: cell-based or functional assay.
Experiment [5] has as its target recombinant human PD-1 Fc chimera (human) (UniProt Q15116). Put plainly: SPR Biacore T200, single cycle kinetics, human Fc tagged PD-1 captured on Protein G, 1:1 model; second line of values in the continuation row of the name.
The target of experiment [6] is Strep tagged recombinant human PD-1 (human) (UniProt Q15116). Put plainly: SPR Biacore T200, single cycle kinetics, Strep tagged human PD-1 amine coupled, 1:1 model.
Strep tagged recombinant human PD-1 (human), sequence (Q15116 25-167 limits assumed): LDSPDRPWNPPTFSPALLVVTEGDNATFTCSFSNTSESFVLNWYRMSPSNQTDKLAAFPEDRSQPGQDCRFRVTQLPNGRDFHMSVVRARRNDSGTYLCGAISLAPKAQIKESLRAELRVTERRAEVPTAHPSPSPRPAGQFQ
Experiment [7] concerns the target recombinant human PD-1 Fc chimera (human) (UniProt Q15116). Put plainly: SPR Biacore T200, single cycle kinetics, human Fc tagged PD-1 captured on Protein G, 1:1 model.

recombinant human PD-1 Fc chimera (human), sequence (Q15116 25-167 limits assumed, stated change not applied): as the sequence (Q15116 25-167 limits assumed) above

B1: 1.57b-4GS-1.1a-4GS-MSA binder (protein, part only; not given: Albumin binder, second linker, His tag, not shown: another chain or arm of the molecule; large carriers; small tags and cut ends)
chain: QVQLVESGGGLVKPGGSLRLSCAASGFTFSDNSMTWMRQAPGKGLEWVSYISSGGGVIFYADSVKGRFTISRDNAKNSLYLQMNSLRADDTAVYYCAREAPLRLGESPHDAFDISGQGTMVTVSSGGGGSGGGGSGGGGSGGGGSEVQLLESGGGSVQPGRSLRLSCAASGFTFDDHAMHWVRQAPGKGLEWVSGISWNSGSMGYADSVKDRFTISRDNAKSSLYLQMNSLRAEDTALYYCVREKGPGLTGSTADYYGLDVWGQGTMVTVSS
Take B1: the EC50 in experiment [1] stood at 1.6 nM; in experiment [2] it was 1 nM. The molecule further displayed an IC50 in experiment [3] of 4.4 nM. Moreover, the EC50 (M), NFAT-Luciferase reporter gene assay in experiment [4] was determined as 2.5e-09 M. Further, the figures for the equilibrium dissociation constant (Kd) in experiment [5], in experiment [6] and in experiment [7] were 0.0166 pM, 0.134 nM and 0.0517 pM, respectively. In addition, the koff stood at 1.32e-08 s⁻¹ in experiment [5], 4.68e-05 s⁻¹ in experiment [6] and 2.67e-08 s⁻¹ in experiment [7]. The values for the on-rate (kon) in experiment [5], in experiment [6] and in experiment [7] were 793000 M⁻¹ s⁻¹, 349000 M⁻¹ s⁻¹ and 516000 M⁻¹ s⁻¹, respectively.

B2: 1.92b-4GS-1.39a-4GS-MSA binder (protein, part only; not given: mouse serum albumin binder, part only)
chain, part: EVQLVESGGGLVKPGGSLRLSCAASGFTFSDESMTWMRQAPGKGLEWVSYISSGGGVKFYADSVKGRFTISRDNAKNSLYLQMNSLRAEDTAVYYCAREAPLRLGESPHDAFDISGQGTMVTVSSGGGGSGGGGSGGGGSGGGGSEVQLVESGGGLVQPGRSLRLSCAASGFTFDDYALHWVRQAPGKDLEWVSGISWNGGSYGYADSVKGRFTISRDNAKNSLYLQMNSLRAEDTALYYCVREKGPGLTGSTADYYGLDAWGQGTMVTVSSGGGGSGGGGSGGGGSGGGGS
The molecule B2 displayed an EC50 (M), NFAT-Luciferase reporter gene assay in experiment [4] of 4.7e-09 M.

B3: 1.57b-4GS-MSA binder-4GS-1.1a (protein, part only; not given: Middle albumin binder and linkers, not shown: another chain or arm of the molecule; large carriers; small tags and cut ends)
VH 1: QVQLVESGGGLVKPGGSLRLSCAASGFTFSDNSMTWMRQAPGKGLEWVSYISSGGGVIFYADSVKGRFTISRDNAKNSLYLQMNSLRADDTAVYYCAREAPLRLGESPHDAFDISGQGTMVTVSS
VH 2: EVQLLESGGGSVQPGRSLRLSCAASGFTFDDHAMHWVRQAPGKGLEWVSGISWNSGSMGYADSVKDRFTISRDNAKSSLYLQMNSLRAEDTALYYCVREKGPGLTGSTADYYGLDVWGQGTMVTVSS
modifications: In the real molecule both VH are parts of one polypeptide: 1.57b, 4GS (SEQ ID NO 1105), MSA binder VH, 4GS (SEQ ID NO 1105), 1.1a. They are given here as two separate chains because the middle domain has no letters.
As for B3, the EC50 (M), NFAT-Luciferase reporter gene assay in experiment [4] is 3.2e-09 M. In experiment [7], the Kd stood at 8.06 pM, the off-rate (koff) is 4.23e-06 s⁻¹ and the on-rate constant (kon) was 524000 M⁻¹ s⁻¹.
